The values that follow come from PMC12810954, “Targeted computational design of an interleukin-7 superkine with enhanced folding efficiency and immunotherapeutic efficacy” (eLife, 2026).

This assay addresses T1, recombinant murine IL-7 receptor alpha (mouse, UniProt P16872 21-239).
T1 construct: interleukin-7 receptor subunit alpha, mouse; Probably the extracellular domain (catalogue product); The SPR methods say only 'recombinant murine IL7Rα' without a supplier; also called IL7Rα; mIL-7Rα; source: bought: Sino Biological; not shown: polyhistidine, C-terminal, kept
T1 sequence (looked up): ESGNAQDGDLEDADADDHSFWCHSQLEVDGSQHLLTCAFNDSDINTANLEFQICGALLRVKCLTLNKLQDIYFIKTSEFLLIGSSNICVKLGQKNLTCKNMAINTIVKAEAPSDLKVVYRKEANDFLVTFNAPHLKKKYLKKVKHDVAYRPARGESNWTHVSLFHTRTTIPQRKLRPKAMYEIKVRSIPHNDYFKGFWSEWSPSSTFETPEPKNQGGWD
The assay can be described thus: SPR; murine IL7Rα immobilised on a CM5 chip by amine coupling (Rmax below 30); threefold serial dilutions of WT-IL7 and Neo-7 variants in HBS-EP+ at 50 µL/min, association 180 s, dissociation 600 s; Biacore T200. The note with it: both partners purified. For orientation: In SPR one partner is held on a chip, and binding of the other changes the refractive index at the surface.

B1: recombinant WT-IL7, E. coli expressed and refolded (ligand, human, UniProt P13232 26-177, looked up)
chain: DCDIEGKDGKQYESVLMVSIDQLLDSMKEIGSNCLNNEFNFFKRHICDANKEGMFLFRAARKLRQFLKMNSTGDFDLHLLKVSEGTTILLNCTGQVKGRKPAALGEAQPTKSLEENKSLKEQKKLNDLCFLKRLLQEIKTCWNKILMGTKEH
notes: interleukin-7, human, wild type; The methods say only that a similar procedure as for Neo-7 was used
As a reminder, the Kd is a measure of binding affinity in units of concentration. The term koff denotes the rate constant with which the complex falls apart. By kon is commonly meant the second-order rate constant of association. Take B1: the Kd turned out to be 13.4 nM, the koff amounted to 0.0784 s⁻¹ and the kon turned out to be 5.86e+06 M⁻¹ s⁻¹.
